# Assay results: publication PMC9638919, “DAZL regulates proliferation of human primordial germ cells by direct binding to precursor miRNAs and enhances DICER processing activity”
# T1: GST-DAZL (UniProt Q92904 1-295)
# T1 sequence: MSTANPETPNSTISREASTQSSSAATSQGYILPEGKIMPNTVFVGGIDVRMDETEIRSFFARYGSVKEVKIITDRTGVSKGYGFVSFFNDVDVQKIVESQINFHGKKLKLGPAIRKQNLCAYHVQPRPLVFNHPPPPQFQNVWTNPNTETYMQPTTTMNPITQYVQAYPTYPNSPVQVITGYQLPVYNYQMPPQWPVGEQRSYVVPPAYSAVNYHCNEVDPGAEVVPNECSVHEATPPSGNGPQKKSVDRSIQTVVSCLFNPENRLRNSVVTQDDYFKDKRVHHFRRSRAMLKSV
# T2: GST-RRM (DAZL RRM domain) (UniProt Q92904 40-115)
# T2 sequence: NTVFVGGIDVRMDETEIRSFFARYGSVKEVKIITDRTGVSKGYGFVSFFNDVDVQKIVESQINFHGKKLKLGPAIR
# Columns and labels:
# GST-DAZL [1] = target: T1, GST-DAZL; assay: EMSA; 3000 nM DAZL; 10 mM HEPES pH 7.4, 50 mM KCl, 1 mM EDTA, 0.05% Triton X-100, 5% glycerol, 0.01 mg/ml BSA, 1 mM DTT; 10 nM FAM-RNA, 40 min; temperature not stated; conditions: protein: recombinant; tags: N-terminal GST; label: 5'-FAM; hairpin
# GST-DAZL [2] = target: T1, GST-DAZL; assay: EMSA; 5000 nM DAZL; 10 mM HEPES pH 7.4, 50 mM KCl, 1 mM EDTA, 0.05% Triton X-100, 5% glycerol, 0.01 mg/ml BSA, 1 mM DTT; 10 nM FAM-RNA, 40 min; temperature not stated; conditions: protein: recombinant; tags: N-terminal GST; label: 5'-FAM; hairpin
# [3] = target: T2, GST-RRM (DAZL RRM domain); assay: EMSA; 10 mM HEPES pH 7.4, 50 mM KCl, 1 mM EDTA, 0.05% Triton X-100, 5% glycerol, 0.01 mg/ml BSA, 1 mM DTT; 10 nM FAM-RNA, 40 min; temperature not stated; conditions: protein: recombinant; tags: N-terminal GST; label: 5'-FAM; hairpin
# GST-DAZL [4] = target: T1, GST-DAZL; assay: as above; conditions: protein: recombinant; tags: N-terminal GST; label: 5'-FAM
# GST-DAZL [5] = target: T1, GST-DAZL; assay: EMSA; only slightly affected vs wild type; 10 mM HEPES pH 7.4, 50 mM KCl, 1 mM EDTA, 0.05% Triton X-100, 5% glycerol, 0.01 mg/ml BSA, 1 mM DTT; 10 nM FAM-RNA, 40 min; temperature not stated; conditions: protein: recombinant; tags: N-terminal GST; label: 5'-FAM
binder,measurement,setting,value
pre-let-7i (structured_RNA) RNA: CUGGCUGAGGUAGUAGUUUGUGCUGUUGGUCGGGUUGUGACAUUGCCCGCUGUGGAGAUAACUGCGCAAGCUACUGCCUUGCUA,binding signal,GST-DAZL [1],37 % shifted
same,binding signal,GST-DAZL [2],50.9 % shifted
pre-let-7c (structured_RNA) RNA: GCAUCCGGGUUGAGGUAGUAGGUUGUAUGGUUUAGAGUUACACCCUGGGAGUUAACUGUACAACCUUCUAGCUUUCCUUGGAGC,binding signal,GST-DAZL [1],37.4 % shifted
same,binding signal,GST-DAZL [2],41.3 % shifted
pre-miR-185 (structured_RNA) RNA: AGGGGGCGAGGGAUUGGAGAGAAAGGCAGUUCCUGAUGGUCCCCUCCCCAGGGGCUGGCUUUCCUCUGGUCCUUCCCUCCCA,binding result,[3],no binding
UAGAGUUACACCCUGGGAGUUAA (ssRNA) [pre-let-7c loop],binding result,GST-DAZL [4],binds
"UAGAAUUACACCCUGGGAAUUAA (ssRNA) [pre-let-7c loop, first G to A in both GUU]",binding result,GST-DAZL [5],binds
"UAGAGAUACACCCUGGGAGAUAA (ssRNA) [pre-let-7c loop, second U to A in both GUU]",binding result,GST-DAZL [5],binds
pre-miR-199a (structured_RNA) RNA: GCCAACCCAGUGUUCAGACUACCUGUUCAGGAGGCUCUCAAUGUGUACAGUAGUCUGCACAUUGGUUAGGC,binding signal,GST-DAZL [1],18.1 % shifted
same,binding signal,GST-DAZL [2],22.1 % shifted
